Laboratory results published in patent publication EP4676971A2 (dated 2026).
Values joined by “and” are separate entries in the source; they are usually repeats but may differ in a detail not shown here. Equal entries are not always repeated.

T1: DR3 receptor on human TF-1 cells (human, UniProt Q93038 25-417)
T1 construct: whole, on cells; also called death receptor 3; TNFRSF25
T1 sequence (looked up): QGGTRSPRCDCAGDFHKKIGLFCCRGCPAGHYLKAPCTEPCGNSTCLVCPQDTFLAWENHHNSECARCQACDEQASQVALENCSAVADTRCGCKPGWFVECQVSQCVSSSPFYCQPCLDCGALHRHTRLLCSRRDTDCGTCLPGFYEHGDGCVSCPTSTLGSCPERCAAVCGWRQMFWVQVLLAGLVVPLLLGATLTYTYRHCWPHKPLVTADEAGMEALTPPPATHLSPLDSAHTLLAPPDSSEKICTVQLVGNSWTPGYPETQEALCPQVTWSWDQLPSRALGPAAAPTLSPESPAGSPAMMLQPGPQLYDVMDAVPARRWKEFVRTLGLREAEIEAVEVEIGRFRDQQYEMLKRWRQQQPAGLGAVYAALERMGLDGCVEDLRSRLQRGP

T2: membrane-bound human TL1A on TNFSF15/HEK293 cells (human, UniProt O95150 1-251)
T2 construct: whole, on cells; also called membrane-associated TL1A
T2 sequence (looked up): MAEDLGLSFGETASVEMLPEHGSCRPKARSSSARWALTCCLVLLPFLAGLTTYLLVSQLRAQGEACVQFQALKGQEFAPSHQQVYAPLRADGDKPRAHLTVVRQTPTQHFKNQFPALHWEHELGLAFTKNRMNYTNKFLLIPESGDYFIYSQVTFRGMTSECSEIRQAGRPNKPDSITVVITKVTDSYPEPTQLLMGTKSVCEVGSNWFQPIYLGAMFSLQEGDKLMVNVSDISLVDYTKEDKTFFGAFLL

T3: cynomolgus monkey TL1A produced by PBMCs in stimulated whole blood (cynomolgus monkey, UniProt G7PRK8 72-251)
T3 sequence: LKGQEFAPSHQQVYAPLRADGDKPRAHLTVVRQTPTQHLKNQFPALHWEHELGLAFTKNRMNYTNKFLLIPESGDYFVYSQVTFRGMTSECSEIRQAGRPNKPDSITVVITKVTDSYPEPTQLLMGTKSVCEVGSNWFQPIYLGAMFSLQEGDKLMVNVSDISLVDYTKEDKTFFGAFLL

T4: recombinant cynomolgus monkey TL1A protein (cynomolgus monkey, UniProt G7PRK8 72-251)
T4 sequence: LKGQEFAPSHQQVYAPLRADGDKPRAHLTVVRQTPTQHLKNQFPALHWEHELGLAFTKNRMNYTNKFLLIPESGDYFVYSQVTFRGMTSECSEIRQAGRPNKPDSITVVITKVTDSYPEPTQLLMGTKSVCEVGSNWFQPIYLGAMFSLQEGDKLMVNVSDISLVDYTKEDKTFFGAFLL

T5: TNFSF6 (FasL) (UniProt P48023 134-281, limits assumed)
T5 sequence (looked up): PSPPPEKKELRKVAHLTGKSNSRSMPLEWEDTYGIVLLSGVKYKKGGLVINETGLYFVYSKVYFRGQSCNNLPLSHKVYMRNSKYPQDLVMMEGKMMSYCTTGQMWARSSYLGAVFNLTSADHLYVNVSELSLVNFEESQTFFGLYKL

T6: recombinant rat TL1A protein (rat, UniProt Q8K3Y7 76-252, limits assumed)
T6 sequence (looked up): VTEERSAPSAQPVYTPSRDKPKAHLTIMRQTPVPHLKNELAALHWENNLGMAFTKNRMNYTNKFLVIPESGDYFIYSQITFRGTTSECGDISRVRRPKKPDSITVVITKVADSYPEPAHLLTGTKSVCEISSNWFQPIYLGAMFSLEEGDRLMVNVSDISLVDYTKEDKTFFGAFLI

T7: recombinant mouse TL1A protein (mouse, UniProt Q5UBV8 76-252, limits assumed)
T7 construct: also called murine TL1A
T7 sequence (looked up): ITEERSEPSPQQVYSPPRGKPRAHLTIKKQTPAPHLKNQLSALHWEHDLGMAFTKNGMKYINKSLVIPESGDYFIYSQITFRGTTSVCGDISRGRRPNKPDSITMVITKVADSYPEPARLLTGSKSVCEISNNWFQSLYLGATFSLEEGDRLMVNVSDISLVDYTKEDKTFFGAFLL

B1: recombinant human TL1A protein (ligand, UniProt O95150 72-251, looked up)
chain: LKGQEFAPSHQQVYAPLRADGDKPRAHLTVVRQTPTQHFKNQFPALHWEHELGLAFTKNRMNYTNKFLLIPESGDYFIYSQVTFRGMTSECSEIRQAGRPNKPDSITVVITKVTDSYPEPTQLLMGTKSVCEVGSNWFQPIYLGAMFSLQEGDKLMVNVSDISLVDYTKEDKTFFGAFLL
notes: also called tumor necrosis factor-like cytokine 1A; TNFSF15
B2: anti-TL1A antibody A219 (antibody, V domains shown)
VH: QVQLVQSGAEVKKPGASVKVSCKASGFDIQDTYMHWVKQRPGQGLEWMGRIDPASGHTKYDPKFQVRVTITRDTSTSTVYLELSSLRSEDTAVYYCARSGGLPDVWGQGTTVTVSS
VL: EIVLTQSPGTLSLSPGERATLSCRASSSVSYMYWYQQKPGQAPRPLIYATSNLASGIPDRFSGSGSGTDFTLTISRLEPEDFAVYYCQQWEGNPRTFGGGTKLEIK
notes: Humanized monoclonal antibody; Molecular weight 143938 Daltons; The constant region is not tied to A219 in the readable text

How the values were obtained:
[1] = target: T1, DR3 receptor on human TF-1 cells; experiment: TF-1 cell caspase activation assay
[2] = target: T2, membrane-bound human TL1A on …; experiment: binding to TNFSF15/HEK293 cells that carry human TL1A, dose-dependent
[3] = target: T3, cynomolgus monkey TL1A produced by …; experiment: cell-based or functional assay
[4] = target: B1; experiment: cell-based or functional assay
[5] = target: T4, recombinant cynomolgus monkey TL1A …; experiment: cell-based or functional assay
TNFSF10 (TRAIL) = TNFSF10 (TRAIL) (UniProt P50591 114-281, limits assumed); experiment: ELISA
TNFSF14 (LIGHT) = TNFSF14 (LIGHT) (UniProt O43557 74-240, limits assumed); experiment: ELISA
TNFSF6 (FasL) = target: T5, TNFSF6 (FasL); experiment: ELISA
[6] = target: B1; experiment: surface plasmon resonance (SPR), recombinant TL1A protein
[7] = target: T4, recombinant cynomolgus monkey TL1A …; experiment: as above
[8] = target: T6, recombinant rat TL1A protein; experiment: ELISA on recombinant TL1A protein
[9] = target: T7, recombinant mouse TL1A protein; experiment: ELISA on recombinant TL1A protein
[10] = target: T4, recombinant cynomolgus monkey TL1A …; experiment: ELISA, binding to recombinant TL1A protein

TNFSF14 (LIGHT), sequence (O43557 74-240 limits assumed): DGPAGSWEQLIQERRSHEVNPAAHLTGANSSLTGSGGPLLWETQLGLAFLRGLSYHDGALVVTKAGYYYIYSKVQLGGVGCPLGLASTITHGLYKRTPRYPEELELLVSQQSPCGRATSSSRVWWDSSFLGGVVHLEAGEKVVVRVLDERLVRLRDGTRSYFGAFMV
TNFSF10 (TRAIL), sequence (P50591 114-281 limits assumed): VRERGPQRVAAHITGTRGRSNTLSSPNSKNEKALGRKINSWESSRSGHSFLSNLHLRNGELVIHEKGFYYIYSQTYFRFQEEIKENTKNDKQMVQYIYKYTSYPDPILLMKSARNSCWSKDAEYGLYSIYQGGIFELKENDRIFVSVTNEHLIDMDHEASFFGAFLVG

Binder | binding result [1] | EC50 [2] [nM] | inhibition of the IFN-gamma response in monkey whole blood (mean IC50) [3] | inhibition of TL1A-induced caspase activation in TF-1 cells (IC50) [4] [nM] | inhibition of TL1A-induced caspase activation in TF-1 cells (IC50) [5] [nM] | binding result (TNFSF10 (TRAIL)) | binding result (TNFSF14 (LIGHT)) | binding result (TNFSF6 (FasL)) | Kd [6] [nM] | Kd [7] [nM] | binding result [8] | binding result [9] | IC50 [10] [nM]
B1 | binds |  |  |  |  |  |  |  |  |  |  |  | 
B2 |  | 17.4 | 1.54 nM and 289 ng/mL | 0.27 | 0.59 | no binding | no binding | no binding | 0.06 | 0.04 | no binding | no binding | 0.47
